Results reported in the RNAGym collection of RNA variant scans (doi:10.1073/pnas.2313332121).

B1: TPR t1 (parent)
chain: GACCAAUCUGCCCUCAGAGCUCGAGAACAUCUUCGGAUGCAGAGGAGGCAGGCUUCGGUGGCGCGAUAGCGCCAACGUCCUCAACCUCCAAUGCAUCCCACCACAUGAUGAUGCCUGAAGAGCCUUGGUUUUUUG

Variants of: B1
Assay: polymerase ribozyme fitness, log enrichment relative to wild type (log ratio); higher = more active; in vitro selection for triplet polymerase activity
Method in brief: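 One round of in vitro selection, in triplicate, was applied to PCR-built, transcribed mutant libraries of each subunit of a heterodimeric triplet polymerase ribozyme. The steps were annealing with a biotinylated primer, partner subunit and triplets, incubation frozen at −7 °C, gel excision of extended constructs, streptavidin-bead capture and RT-PCR. Fitness is the logarithm, base 2, of genotype enrichment over wild-type enrichment from inverse-variance-weighted replicate averages of Illumina-sequenced inputs and outputs, keeping genotypes with ≥10 input reads and ≥1 read per output.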

Variant | polymerase ribozyme fitness (log ratio)
C73A C88A G117U | -4.07
C73A A90G G107A G117U | -6.33
C73A U92C | -0.541
C73A U92A | -2.45
C72U A119G | 0.547
C73A G107A | -5.21
C72U C102A C123G | -0.477
C72A G93U G110U | -2.37
C72G C94G | -1.73
C72U U81C U116A | -3.5
C72G C85U | -1.45
C72A C102A | -1.51
C72U A100C | -1.3
C72U A100U | -0.925
C72U C79U C82A | -0.964
C73A C101U | 0.2
C73A C101G | -1.26
C72U C80U C82A U129G | -2.75
C72A G122A | -0.72
C72A C104G | -7.39
C73A G135U | -1.25
C72U C79A | -3.07
C72U G113U G120U U130C | -3.5
C72U A111C A121U G128A | -1.12

Variant | polymerase ribozyme fitness (log ratio)
C72U A103U | -5.16
C73A C80G | -5.69
C72G C73U | -0.887
C72A G77A C89U U106C | -1.11
C72U U96C G135U | -1.42
C72U A83U A90G C114G | -1.45
C72G C115U | -1.03
C72G C115A | -0.17
C72U U81G | -3.35
C72U C94U G127U | -1.75
C72A C114A | -1.85
C73A C82G G117U U130C | -0.953
C72U U78C C86G G127C | -2.25
C73A U109G | -4.56
C72U C76U G122A | -1.21
C73A U130C | -0.0885
C72U C97G | -4.65
C72U C97A | -5.06
C72A C102A U125G | -2.01
C72U G113C A118C | -3.51
C72G U78G C97U | 0.186
C72U G135U | -1.38
C72G C101A U125G | -1.8
C72U C94G C101A | -2.57

Variant | polymerase ribozyme fitness (log ratio)
C72G G117C | -3.87
C72U C82A A84C A111C | 0.731
C72A G120A U130G | -0.18
C72G C88A A90U | -2.14
C73G C80U | -1.77
C73A G110C U125A U129A | -6.92
C72A C123A U126G | -0.782
C72G U87C C99U C115G | -5.69
C72U C102G U133A | -5.27
C72A C89U U92G | -1.39
C72A U78A G110C | -4.71
C72U C97U G120A G122A | -1.22
C72G A108C | -5.06
C72G U106A U129A | -1.25
C72U A84C C124U | 1.07
C72U A83G C85U | -1.39
C72G U78G C97U C124A | 1.18
C72A C124U | 1.25
C73A C86U U87A G117A U132A | -3.67
C72G G77C A95G C101G | -2.74
C72U U112A G120C | 0.504
C72U G110A G113A | -4.61
C72U U81A A91U A118U | -3.42
C72G A100U G113U C124U | -4.64

Variant | polymerase ribozyme fitness (log ratio)
C72A G77A | -0.135
C73G A75U A83U | -1.08
C72U C85A | -1.82
C72A C115G | -2.29
C72G C102A A105C | -5.78
C72G A105G | -1.94
C73A U133A | 0.106
C72U U87G | -1.61
C72U U112G | 0.605
C72A C94G C102A C115U | -5.19
C72G A91C A95C A121G G128C U133G | -3.31
C72U G117U | -2.27
C72U G117A | -1.29
C72U C80A | -5.24
C72U C80U | -1.08
C72U U109G G113A | -5.96
C72G U78A G127U U129C | -2.25
C72U C101A C115A C123A | -3.06
C72G U87C G93A C104G C123G | -6.53
C73A G127C | -1.98
C72U G122A | -0.576
C72U A111C | 0.581
C72U G93C | -0.856
C73A A119U U132C | -0.485

Variant | polymerase ribozyme fitness (log ratio)
C72U U109G | -4.62
C73A | 0.0792
C73G | -0.606
C72A U112A | 1.59
C72U U130C | -0.237
C72U U130A | -1.42
C72U U130G | -0.892
C72U A121C U131C | 0.346
C72G C101A U106A A119U C123U | -4.15
C72U C73A A83U U109A | -5.82
C72U C101G C115U | -3.38
C73A A90U | -3.12
C72A C102U C123A C124G | 0.156
C72U G110C G128U | -6.47
C72U G127C U132C | -1.97
C72G C73A A121G | 0.168
C73A U109C C114G C115A G122U | -7.04
C72U A84G | -1.74
C72U A84C | 0.0877
C72G C73U G93C A111C G122U G135A | -4.92
C72U G113C | -2.1
C72U G113U | -2.87
C72A U125C | -1.51
C72A U125A | -0.026

Variant | polymerase ribozyme fitness (log ratio)
C72U C94U | -0.599
C73G A91C G127A | -3.34
C72G G135A | -0.341
C72G C88A G113U G127C | -5.08
C72A C86G G122A | -2.26
C72G A90U C101A G122A | -3.94
C72A U81C U109A G110U U112G A121U U125A | -6.45
C73A U112A A121U U125A | 1.73
C72U A74U | -1.23
C72U A83C C114U | -1.96
C72A C94A | -0.415
C72A U109A | -4.06
C72G U78C C82U C94A | -0.768
C72A U96A A108G G122U U129C | -3.93
C72G U106G G110U A121U U126A G127A | -5.78
C72A C82G U112G G117A U126C U129G | -5.85
C72A U129C | -0.6
C72G C88U C123A | 0.243
C72U C98U U131C | -1.05
C72G U81A | -2.98
C72G U81C | -1.12
C72U C76G | -0.525
C72U C76A | -0.968
C72A U81G G120U | -0.653

Variant | polymerase ribozyme fitness (log ratio)
C73A C99U | -2.77
C73A C79G U112A | -0.66
C73G A74U C89U | -2.48
C73A C102U | -0.943
C72A U87C C88G U116G | -3.6
C73G C82A | -1.99
C72A C102A U129A | -2.3
C72U U116G | -2.57
C72U U116C | -0.368
C72U G77C | -1.07
C73A G120C | 1.81
C72U C114U C115U | -7
C72G U125A G128A U133A | -3.47
C72U U125C | -1.92
C72U U125G | -2.26
C72U U92G | -2.59
C73A C94A C102A | -2.96
C72U G117C G120U U131G | -5.53
C72U C85U G93U | -2.45
C72U C102A G128A | -4.14
C72U U78A A90U C123U | -1.05
C72A U92A A121U U125G | -1.7
C72G C82U U131G | -0.338
